Here are results for 4 molecules from US20210398607A1, “METHODS FOR DESIGNING ANTIBODY SMALL-MOLECULE CONJUGATES” (priority 2020, published 2021).

The target in assay [1] is mSA. To be noted: read-out: biotin/mSA affinity, fluorescence polarization spectroscopy, cited from earlier work.
Assay [2] deals with T1, mSA (monomeric streptavidin construct), wild type.
T1 construct: also called mSAWT
T1 chain: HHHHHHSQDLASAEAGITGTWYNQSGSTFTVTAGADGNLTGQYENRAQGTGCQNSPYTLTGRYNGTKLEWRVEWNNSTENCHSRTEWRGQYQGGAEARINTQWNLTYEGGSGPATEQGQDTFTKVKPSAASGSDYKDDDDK
The experiment in a line: SPR.

Assay [3] has as its target T1, mSA (monomeric streptavidin construct), …. Kind of assay: SPR, conjugate injected at 1, 2.5, 5, 10, 20 nM; fit curve; replicate 2. The panel title prints 'against immobilized mSAS27A'; target taken as mSAWT after the legend of FIG. 6B (other two replicates against mSAWT are in FIG. 11) and the matching data points of FIG. 6C.
The target is the same in assay [4]. Kind of assay: SPR, conjugate injected at 1, 2.5, 5, 10, 20 nM; fit curve; replicate 2. The panel title prints 'against immobilized mSAS27A'; target taken as mSAWT after the legend of FIG. 6B and the matching data points of FIG. 6C.
For assay [5] the target is unchanged. Kind of assay: SPR, conjugate injected at 1, 2.5, 5, 10, 20 nM over immobilized mSAWT; fit curve; one of three replicates.
Assay [6] shares this target. Kind of assay: SPR, conjugate injected at 1, 2.5, 5, 10, 20 nM; fit curve; replicate 3. The panel title prints 'against immobilized mSAS27A'; target taken as mSAWT after the legend of FIG. 6B and the matching data points of FIG. 6C.
Assay [7] has the same target. Kind of assay: SPR, single-cycle injections of 2.5, 5, 10, 20 and 50 nM conjugate; target mSAWT by the text, not printed on the sheet; fit curve.
Assay [8] concerns the target T2, mSAS27A (mSA with single mutation S27A).
T2 chain: T1 chain with S27A
The experiment in a line: SPR.

Assay [9] addresses T1, mSA (monomeric streptavidin construct), …. The experiment in a line: SPR, conjugate injected at 0.5, 1, 2.5, 5, 10 nM over immobilized mSAWT; fit curve; replicate 2.
Assay [10] has the same target. The experiment in a line: SPR, conjugate injected at 0.5, 1, 2.5, 5, 10 nM over immobilized mSAWT; fit curve; replicate 3.
The target is the same in assay [11]. The experiment in a line: SPR, conjugate injected at 0.5, 1, 2.5, 5, 10 nM over immobilized mSAWT; fit curve; one of three replicates.
In assay [12] the target is T2, mSAS27A (mSA with single mutation S27A). The experiment in a line: SPR, conjugate injected at 12.5, 25, 50, 100, 200 nM over immobilized mSAS27A; fit curve; one of three replicates.
The target is the same in assay [13]. Kind of assay: SPR, conjugate injected at 12.5, 25, 50, 100 and 200 nM over immobilized mSAS27A; biological replicate 2; fit curve.
The target is the same in assay [14]. Kind of assay: SPR, conjugate injected at 12.5, 25, 50, 100 and 200 nM over immobilized mSAS27A; biological replicate 3; fit curve.

Positions count from the first letter of the chain named. Like-named read-outs stand apart in the source and are kept apart here.

As for `O=C(O)CCCC[C@@H]1SC[C@@H]2NC(=O)N[C@@H]21` [biotin], the Kd is 2.8 ± 0.5 nM in assay [1] (4° C.) and 5.5 ± 0.2 nM in assay [1] (37° C.).

B1: 2X89.A-CCAA-biotin57 (VHH)
VHH: QVQLQESGGGSVQAGGSLRLSCAASGYTDSRYAMAWFRQAPGKEREWVARINSGRDCTYYADSVKGRFTFSQDNAKNTVYLQMDSLEPEDTATYYCATDIPLRARDIVAKGGDGFRYWGQGTQVTVSS
notes: also called parent conjugate
As for B1, the Kd in assay [2] was determined as 0.8 nM; in [4], 1.01 nM; in assay [5], 0.82 nM; in assay [6], 0.54 nM. Moreover, the kon in [3] was determined as 710000 M⁻¹ s⁻¹; in [5] it was 940000 M⁻¹ s⁻¹; in assay [6], 1.03e+06 M⁻¹ s⁻¹. Further, the figures for the koff in [4], in assay [5] and in assay [6] were 0.000718 s⁻¹, 0.000771 s⁻¹ and 0.000555 s⁻¹, respectively.

B2: 2X89.A-CCAA-biotin57 v5 (VHH)
VHH: QVQLQESGGGLVQAGGSLRLSCAASGYTSSQYAMGWYRQAPGKEREWVATISAGADCTYYADSVKGRFTFSQDNAKNTVYLQMDSLKPEDTAVYYCATDSPLQATLITAKGGKGFQYWGQGTQVTVSS
notes: also called variant v5; final variant v5
In assay [7], B2 gave a Kd of 2.78 nM, a dissociation rate constant (koff) of 0.00122 s⁻¹ and a kon of 440000 M⁻¹ s⁻¹.

B3: 4NBX.B-biotin103 v186_Fr (VHH)
VHH: QVQLQESGGGLVQAGGSLRLSCAASGRTFSRSPMAWYRQPPGKEREFVAAGSSTGTTTYYADSVKGRFTISRDNAKNTVYLQMNSLKPEDTAVYYCAAAPLGCARKFAESAYWGQGTQVTVSS
notes: also called wildtype v186_Fr
Consider B3, for which the Kd in [2] was found to be 0.2 nM; in assay [8], 54 nM; in assay [9] it was 0.16 nM; in [10], 0.21 nM; in assay [11], 0.23 nM; in assay [12], 49.6 nM. Besides, the Kd in [13] turned out to be 56.3 nM; in assay [14], 55.5 nM. Moreover, the “fold KD improvement over biotin/mSAWT” value in assay [2] is above 20 fold. Moreover, the “fold KD improvement (over biotin/mSAS27A)” value in [8] is around 20 fold. Also, the koff in assay [9] is 0.00079 s⁻¹; in assay [10], 0.00089 s⁻¹; in assay [11], 0.0011 s⁻¹; in [12], 0.0912 s⁻¹; in [13], 0.0879 s⁻¹; in [14] it was 0.0872 s⁻¹. Further, the kon is 5.04e+06 M⁻¹ s⁻¹ in assay [9]; 4.26e+06 M⁻¹ s⁻¹ in assay [10]; 4.79e+06 M⁻¹ s⁻¹ in [11]; 1.84e+06 M⁻¹ s⁻¹ in assay [12]; 1.56e+06 M⁻¹ s⁻¹ in [13]; 1.57e+06 M⁻¹ s⁻¹ in assay [14].
